In paper PMC6992608, “A Single Step in vitro Bioassay Mimicking TLR4-LPS Pathway and the Role of MD2 and CD14 Coreceptors” (Frontiers in Immunology, 2020):

Biological target: T1, Human recombinant toll like receptor 4 (rTLR4) (human, UniProt O00206 24-631)
T1 construct: toll like receptor 4 (TLR4), human, recombinant; No catalogue number or construct limits are printed; a soluble recombinant TLR4 is most likely the extracellular domain (surmised); also called MP-rTLR4; source: bought: R & D Systems
Experiment: pull-down; rTLR4 held by its His tag on Ni-NTA magnetic beads; MD2 (Alexa Fluor 647), CD14 and LPS-Alexa Fluor 488 co-incubated in one tube in PBS pH 7.4 with 0.5% Tween 20 at RT; beads removed by magnet at 15, 30, 45, 60 and 90 min; unbound MD2 in the supernatant quantified by fluorescence, CD14 by silver staining
Conditions: both partners purified

T1 sequence (O00206 24-631): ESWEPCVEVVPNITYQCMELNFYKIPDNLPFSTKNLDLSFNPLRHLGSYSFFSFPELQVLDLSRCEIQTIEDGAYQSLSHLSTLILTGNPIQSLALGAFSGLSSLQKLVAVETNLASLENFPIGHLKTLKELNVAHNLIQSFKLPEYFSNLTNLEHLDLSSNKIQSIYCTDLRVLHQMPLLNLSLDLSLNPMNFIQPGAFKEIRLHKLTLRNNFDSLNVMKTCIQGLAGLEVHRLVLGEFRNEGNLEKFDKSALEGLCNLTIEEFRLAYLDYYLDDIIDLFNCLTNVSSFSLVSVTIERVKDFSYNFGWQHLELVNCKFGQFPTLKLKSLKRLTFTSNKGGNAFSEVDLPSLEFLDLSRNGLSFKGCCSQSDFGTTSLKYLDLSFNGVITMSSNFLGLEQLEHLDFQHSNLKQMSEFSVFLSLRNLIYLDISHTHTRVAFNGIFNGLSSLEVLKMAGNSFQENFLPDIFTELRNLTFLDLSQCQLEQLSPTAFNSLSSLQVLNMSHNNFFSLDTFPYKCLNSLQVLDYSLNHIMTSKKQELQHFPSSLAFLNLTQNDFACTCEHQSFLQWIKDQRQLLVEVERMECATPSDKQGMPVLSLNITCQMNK

stoichiometry N: 1
B1: Recombinant human myeloid differentiation-2 (MD2) protein (natural protein, UniProt Q9Y6Y9 19-160, looked up)
chain: QKQYWVCNSSDASISYTYCDKMQYPISINVNPCIELKRSKGLLHIFYIPRRDLKQLYFNLYITVNTMNLPKRKEVICRGSDDDYSFCRALKGETVNTTISFSFKGIKFSKGKYKCVVEAISGSPEEMLFCLEFVILHQPNSN
modifications: Alexa Fluor 647, on average 3 tags per MD2 molecule
notes: myeloid differentiation-2 (MD2, lymphocyte antigen 96), human, recombinant; No catalogue number is printed; source: bought: Abcam
